Tests used:
[1] = target: T1, soluble monomeric human MUC16 (hMUC16.mmh, last five SEA domains, SEQ ID: 1902) (Homo sapiens, UniProt Q8WXI7); assay: Surface plasmon resonance (BIACORE) binding to hMUC16 fragment at 25° C.; set-up: key to ka / kd / KD / t 1/2: NB: No binding; settings: for ka / kd / KD / t 1/2: 25° C.; for binding to soluble truncated human MUC16 protein via surface plasmon resonance (in words): truncated format encompassing the last five SEA domains
T1 construct: mmh (myc-myc-hexahistidine)
Experimental: Antibodies were captured onto a CM4 or CM5 BIACORE sensor surface (GE Healthcare Life Sciences) derivatized via amine coupling with a monoclonal anti-human Fc antibody (GE, # BR-1008-39) or a monoclonal goat anti-mouse Fc antibody (GE, # BR-1008-38). Various concentrations of soluble monomeric human MUC16, in a truncated format encompassing the last five SEA domains of Mucin-16 (hMUC16.mmh, or MUC16 “nub”, SEQ ID: 1902) were injected over the anti-MUC16-antibody captured surface at a flow rate of 50 uL/minute (BIACORE T 200) or 30 uL/minute (BIACORE 4000). Antibody-reagent association was monitored for 4 min and the dissociation was monitored for 6-10 min. All binding studies were performed in HBS-ET buffer (0.01M HEPES pH 7.4, 0.15M NaCl, 0.05% v/v Surfactant P20).
Kinetic association (ka) and dissociation (kd) rate constants were determined by fitting the real-time sensorgrams to a 1:1 binding model using Scrubber 2.0c curve fitting software. Binding dissociation equilibrium constants (KD) and dissociative half-lives (t½) were calculated from the kinetic rate constants as: […]

[2] = target: T2, hMUC16 endogenously expressed on OVCAR-3 cell line (Homo sapiens, UniProt Q8WXI7); assay: Electrochemiluminescence (MSD) cell binding, OVCAR-3 vs SK-OV-3; settings: cell-based binding assay
T2 construct: OVCAR-3 cells endogenously express MUC-16; endogenous in cells; host or cells: OVCAR-3 (also luciferase-transduced OVCAR3-Luc)
Experimental: The ability of anti-MUC16 antibodies to bind specifically to endogenously expressing MUC16 on the human ovarian carcinoma cell line (OVCAR-3) was evaluated via an electrochemiluminescence based detection assay (Meso Scale Discovery (MSD), Rockville, Md.). […] Detached cells were then washed once in 1×PBS supplemented with Ca^2+/Mg^2+ and counted (Cellometer Auto T4 cell counter, Nexcelom Bioscience, Lawrence, Mass.). Approximately 1.0×10^4 cells were plated in MULTI-ARRAY 96-well carbon electrode plates (MSD) and incubated for 1 h at 37° C. […] Next, serial dilutions of anti-MUC16 or control antibodies (0.85 pM-50 nM) and no-antibody buffer controls were added to the plate-bound cells and incubated for 1 h at room temperature (RT). […] Plate-bound antibodies were detected with a SULFO-TAG™-conjugated anti-human kappa light chain antibody (Regeneron) or a SULFO-TAG™-conjugated anti-mouse IgG antibody (Jackson Immunoresearch, West Grove, Pa.) for 1 h at RT. Post-wash, plates were developed with Read Buffer (MSD) according to manufacturer's protocol and luminescent signals were recorded with a SECTOR Imager 6000 (MSD) instrument.
Luminescence intensity, measured in relative light units (RLU), for the two cell lines was recorded to indicate the binding intensity of each antibody.

[3] = Hybridoma anti-MUC16 antibodies (H1M, H2M, H3M), Table 5A
[4] = Human Fc anti-MUC16 antibodies (H1H), Table 5B

T1 sequence (Q8WXI7 with tags, fused parts or gaps): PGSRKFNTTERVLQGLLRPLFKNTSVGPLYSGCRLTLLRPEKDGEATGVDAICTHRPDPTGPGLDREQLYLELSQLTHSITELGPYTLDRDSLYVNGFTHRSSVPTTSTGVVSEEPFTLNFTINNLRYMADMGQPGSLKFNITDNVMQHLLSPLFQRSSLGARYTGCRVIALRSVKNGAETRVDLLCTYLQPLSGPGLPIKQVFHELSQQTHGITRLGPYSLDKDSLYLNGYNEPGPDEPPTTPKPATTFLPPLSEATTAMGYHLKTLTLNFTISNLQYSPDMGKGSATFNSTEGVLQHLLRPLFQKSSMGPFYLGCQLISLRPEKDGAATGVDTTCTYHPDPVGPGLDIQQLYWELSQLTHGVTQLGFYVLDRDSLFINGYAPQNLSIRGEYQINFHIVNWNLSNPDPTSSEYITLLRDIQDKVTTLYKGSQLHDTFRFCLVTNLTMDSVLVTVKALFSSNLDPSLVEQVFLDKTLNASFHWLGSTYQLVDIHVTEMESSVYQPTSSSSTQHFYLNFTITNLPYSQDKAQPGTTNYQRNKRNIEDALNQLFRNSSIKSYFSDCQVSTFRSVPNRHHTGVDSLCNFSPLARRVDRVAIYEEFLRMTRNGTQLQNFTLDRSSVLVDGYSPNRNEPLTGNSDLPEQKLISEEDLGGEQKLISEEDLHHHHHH

| Molecule | ka [1, 3] | kd [1, 3] | ka [1, 4] [M⁻¹ s⁻¹] | kd [1, 4] [s⁻¹] | specific binding to endogenous human MUC16 expressed on OVCAR-3 cells (in words) [2] | KD [1, 3] | t 1/2 [1, 3] | binding to soluble truncated human MUC16 protein via surface plasmon resonance (in words) [1] |
| --- | --- | --- | --- | --- | --- | --- | --- | --- |
| H2M7135N: anti-MUC16 hybridoma antibody, mIgG2; HCVR/LCVR SEQ ID NOs: 298/306 (antibody, V domains shown) VH: EVQLVESGGGLVQAGGSLRLSCAASGFTFSYHEMNWVRQAPGKGLEWVSYIGSRGTTKHYADPVKGRFTISRDNAKNSLYLQMNSLRAEDTAVYYCASEVGSILGYSMDVWGQGTTVTVSS VL: DIQMTQSPSSLSASVGDRVTITCRASQSVSRYLNWCQQKPGKAPKLLTYAASSLQSGVPSRFSGSGSGTDFTLTISSLQPEDFAAYFCQQSYSTPPITFGQGTRLEIK | 51000 M⁻¹ s⁻¹ | 0.000218 s⁻¹ |  |  |  |  |  |  |
| H1H8783P: anti-MUC16 antibody, human IgG1 Fc; HCVR/LCVR SEQ ID NOs: 50/58 (antibody, V domains shown) VH: QVQLVESGGGVVQPGRSLRLSCAASGFTFSDHAMHWVRQAPGKGLEWVAVISYHGTDKQYGDSVKGRFTISRDNSKNALYLQMNSLRPEDTAMYYCAKDGYDFWNAYSLFDYWGQGTLVTVSS VL: DIQMTQSPSSLSASVGDRVTITCRASQSISNYLNWYQQKPGKAPKLLIYTASSLLSGVPSRFSGSGSGTDFTLTISSLQPEDFATYYCQQSYSTPPITFGQGTRLEIK |  |  | 174000 | 0.000107 |  |  |  |  |
| H1H8770P: anti-MUC16 antibody, human IgG1 Fc; HCVR/LCVR SEQ ID NOs: 34/42 (antibody, V domains shown) VH: QVQLVESGGGVVQPGRSLRLSCAASGFTFSDHGMHWVRQAPGKGLEWVAVISYHGSNKHYADSVKGRFTISRDNSKNALYLQMNSLRPEDTAMYYCAKDGYDFWNGYSLFDYWGQGTLVTVSS VL: DIQMTQSPSSLSASVGDRVTITCRASQSISNYLNWYQQKPGKAPKLLIYTASNLLSGVPSRFSGSGSGTDFTLTISSLQPEDFATYYCQQSYSTPPITFGQGTKLEIK |  |  | 247000 | 0.000308 |  |  |  |  |
| H3M9529N: anti-MUC16 hybridoma antibody, mIgG3; HCVR/LCVR SEQ ID NOs: 378/386 (antibody, V domains shown) VH: QVQLQQWGAGLLKPSETLSLTCAVYGGSFSGFYWSWIRQPPGKGLEWIGEINHSGSAKYNPSLKNRVIISIDTSKNQFSLKLDSVTAADTAVYNCARQGWNFAIFDYWGQGTLVDVSS VL: DIVMTQSPDSLAVSLGGRATINCKSSQSVLHSSYNKDHLAWYQQRPGQPPKLLIYWASTRESGVPDRFSGSGSGTDFTLTISSLQAEDVAVYYCQQYNILPPTFGQGTRVEIK | NB | NB |  |  | specific binding | NB | NB | no binding |
| H1M9528N: anti-MUC16 hybridoma antibody, mIgG1; HCVR/LCVR SEQ ID NOs: 234/242 (antibody, V domains shown) VH: QMQLQESGPGLVKPSETLSLTCTVSGGSISSYYWNWIRQPPGKGLEWIGYIYYSGNNFNPSLKSRVTISVDTSKNQFSLKLSSVTAADTAVYYCARAFHWNYEFDYWGQGTLVTVSS VL: EIVLTQSPGTLSLSPGERATLSCRASQSVSNNYLAWYQQKPGQAPRLLLYGASSRTTDIPDRFSGSGSGTDFTLTISRLEPEDFAVYYCQQYDNSPLTFGGGTKVEIR | NB | NB |  |  | specific binding | NB | NB | no binding |
| H1H8755P: anti-MUC16 antibody, human IgG1 Fc; HCVR/LCVR SEQ ID NOs: 2/10 (antibody, V domains shown) VH: EVQLVESGGGLVQPGRSLRLSCAASGFTFNDYAMHWVRQSPGKGLEWVSGIDWNGGSIDYADSVKGRFTISRDTAKNSLYLQMNSLKVEDTALYYCAKDIGHWNYIGGMDVWGQGTTVTVSS VL: DIQMTQSPSSLSASVGDRVTITCRASQSINIYLNWYQQKPGKAPKFLIYAASSLQTGVPSRFSGSGSGTDFTLTISSLEPEDFATYYCQHSYSTPPITFGQGTRLEIK |  |  | 522000 | 0.000149 |  |  |  |  |
| H1H8808P: anti-MUC16 antibody, human IgG1 Fc; HCVR/LCVR SEQ ID NOs: 130/138 (antibody, V domains shown) VH: QVQLVESGGGVVQPGRSLRLSCVASGFTFSNYGIHWVRQAPGKGLEWVAVISDDGSFKFYADSVKGRFTISRDNSKNTLYLQMNSLRVEDSAVYHCAKWQHNWNDGGFDYWGQGTLVTVSS VL: EIVLTQSPDTLSLSPGERATLSCRASQSLSSNYLAWYRQKPGQAPRLLIYGISSRATGIPDRFSGSGSGTDFTLTISRLEPEDFAVYYCQQYGSSPWTFGQGTKVEIK |  |  | 4120 | 0.000216 |  |  |  |  |

Reference: US10941208B2, “Anti-MUC16 antibodies” (Regeneron Pharmaceuticals, Inc., priority 2016, dated 2021)
